Patent US20130040894A1, “INHIBITION OR ACTIVATION OF SERINE/THREONINE ULK3 KINASE ACTIVITY” (TALLINN UNIVERSITY OF TECHNOLOGY, priority 2009, published 2013)

Columns and labels:
[1] = target: T1, His-tagged GLI1 fragment, amino acids 726-1106
T1 chain: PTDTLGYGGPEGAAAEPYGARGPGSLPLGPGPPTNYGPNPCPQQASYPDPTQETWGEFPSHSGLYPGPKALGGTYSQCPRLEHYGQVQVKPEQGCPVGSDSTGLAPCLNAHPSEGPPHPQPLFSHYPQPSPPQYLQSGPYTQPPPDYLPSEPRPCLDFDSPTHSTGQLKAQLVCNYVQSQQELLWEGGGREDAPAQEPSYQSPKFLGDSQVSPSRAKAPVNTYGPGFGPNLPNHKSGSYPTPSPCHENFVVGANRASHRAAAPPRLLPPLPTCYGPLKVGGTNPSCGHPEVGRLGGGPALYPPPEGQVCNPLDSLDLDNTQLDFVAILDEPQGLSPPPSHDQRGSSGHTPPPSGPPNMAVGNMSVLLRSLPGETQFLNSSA

[2] = system: GLI1 in nuclear extracts of Cos1 cells; experiment: Cell fractionation analysis with WB; assay type: cell-based, primate; details: cotransfected with FLAG-tagged GLI1 in Cos1 cells, lamin A/C loading control
Description: Cos1 cells were transfected with FLAG-tagged expression constructs for GLI1 combined with ULK3, ULK3(K139R) or empty vector in ratio 1:1 on 10 cm plates. Nuclear and whole cell extracts (NE and WCE, respectively) were prepared as described in [36]. All extracts were normalized for protein amounts measured using […] kit (Thermo Scientific). A total 10 μg of protein were separated by SDS-PAGE and transferred to the PVDF membrane (Millipore, Billerica Mass., USA). The membrane was segmented according to the expected size of the detected proteins. Obtained strips were probed with the appropriate antibodies.
WB was performed using a non-blocking technique as described in [37]. Mouse monoclonal M2-anti-FLAG antibody (Sigma-Aldrich) was used for detection of FLAG-tagged GLI1, GLI2, GLI3, ULK3, ULK3(K44R) and ULK3(K139R) by WB in dilution 1:2000. Lamin A/C was detected with mouse monoclonal anti-Lamin A/C antibody (Upstate, Billerica Mass., USA) diluted 1:1000. Mouse monoclonal anti-His antibody (Novagen, Darmstadt, Germany) diluted 1:1500 was used for detection of bacterially expressed and purified GLI1 fragements. […]
To confirm the data from the immunofluorescent staining, we performed cell fractionation analysis. […] Expression of lamin A/C was analyzed as a loading control. ULK3 and ULK3(K139R) were detected mostly in WCEs.

[3] = system: GLI1 mRNA expression in HEK293 cells; experiment: Quantitative RT-PCR of endogenous GLI1 mRNA expression; assay type: cell-based, human; details: normalized by HPRT; for induction of endogenous GLI1 expression: 72 h; for endogenous GLI1 expression level relative to empty vector: FIG. 5B
Description: HEK293 cells were transfected with FLAG-tagged wt ULK3, ULK3(K139R) or respective empty vector in two replicates. After 5 h of incubation one replicate of cells transfected with the vector was induced by SHHC24II. The cells were incubated 24 h and 72 h, washed with PBS. Total RNA was isolated and treated with DNaseI using RNAqueous kit (Ambion) according to manufacture's instructions. cDNA of 2 μg total RNA was synthesised using SuperScript III kit (Ambion). Levels of GLI1 mRNA and mRNA of housekeeping gene HPRT used for normalization were detected in triplicates by quantitative Real-Time PCR. The following GLI1 primers were used for the assay: […]
HEK293 cells were transfected by ULK3 or respective empty vector. Cells transfected with empty vector were induced by 12 nM of SHHC24II and were used as a posititve control. Cells were incubated 24 h and 72 h, and total RNA was isolated. Level of GLI1 expression was measured using QRT-PCR procedure and the obtained data was normalized by expression of housekeeping gene HPRT. Level of GLI1 expression in cells transfected with empty vector was taken as 1.

[4] = system: GLI3; experiment: In vitro kinase assay, phosphorylation of GLI3; assay type: biochemical; details: FLAG-tagged GLI3 immunoprecipitated from HEK293 cells
Description: HEK293 cells were transfected with 13.5 μg of FLAG-tagged constructs expressed GLI1, GLI2, GLI3, ULK3, ULK3(K44R), ULK3(K139R) or FLAG-CMV-4 empty vector on 10 cm plates. The cells were lysed with 0.5 ml of Lysis Buffer (50 mM Tris HCl, pH 7.4, 150 mM NaCl, 1 mM EDTA, 1% Triton X-100) containing protease inhibitor cocktail (PIC) (Roche Applied Science). The lysates were centrifuged for 15 min at 4° C. and 15000 g, and the supernatants were used for immunoprecipitation (IP). IP was performed using anti-FLAG-M2 affinity gel (Sigma-Aldrich) in batch format according to the manufacture's instructions. Immune complexes were washed three times with 500 μl of Kinase Buffer (KB) (50 mM HEPES, pH 7.4, 20 mM MgCl2, 25 μM ATP) and resuspended in 12.5 μl of KB. One fifth of the immuno-complexes was subjected to WB and the rest was used for the kinase assay.
Kinase reactions were carried out in KB in a total volume of 20 μl of in the presence of 1 μCi of [γ-^32P]ATP per reaction. We used 1 μl of the immunoprecipitated ULK3, ULK3(K44R) or ULK3(K139R) mixed with 5 μl of the GLI-M2 immunocomplexes or 5 μl of bacterially expressed and purified His-GLI1 fragments. Kinase reactions were held at 30° C. for 30 min and terminated by adding of 5 μl of 4× Laemmli Sample Buffer. Proteins were resolved by SDS-PAGE. […]

B1: FLAG-tagged wild-type ULK3 (human serine/threonine kinase ULK3) (protein)
chain: MAGPGWGPPRLDGFILTERLGSGTYATVYKAYAKKDTREVVAIKCVAKKSLNKASVENLLTEIEILKGIRHPHIVQLKDFQWDSDNIYLIMEFCAGGDLSRFIHTRRILPEKVARVFMQQLASALQFLHERNISHLDLKPQNILLSSLEKPHLKLADFGFAQHMSPWDEKHVLRGSPLYMAPEMVCQRQYDARVDLWSMGVILYEALFGQPPFASRSFSELEEKIRSNRVIELPLRPLLSRDCRDLLQRLLERDPSRRISFQDFFAHPWVDLEHMPSGESLGRATALVVQAVKKDQEGDSAAALSLYCKALDFFVPALHYEVDAQRKEAIKAKVGQYVSRAEELKAIVSSSNQALLRQGTSARDLLREMARDKPRLLAALEVASAAMAKEEAAGGEQDALDLYQHSLGELLLLLAAEPPGRRRELLHTEVQNLMARAEYLKEQVKMRESRWEADTLDKEGLSESVRSSCTLQ
- in vitro kinase assay, phosphorylation of a His-tagged GLI1 fragment [1]: Two of them-GLI1(1-433) and GLI1(726-1106)-were phosphorylated by ULK3

B2: ULK3(K139R): kinase-deficient ULK3 mutant with Lysine at position 139 mutated to Arginine (SEQ ID NO:7) (protein)
chain: MAGPGWGPPRLDGFILTERLGSGTYATVYKAYAKKDTREVVAIKCVAKKSLNKASVENLLTEIEILKGIRHPHIVQLKDFQWDSDNIYLIMEFCAGGDLSRFIHTRRILPEKVARVFMQQLASALQFLHERNISHLDLRPQNILLSSLEKPHLKLADFGFAQHMSPWDEKHVLRGSPLYMAPEMVCQRQYDARVDLWSMGVILYEALFGQPPFASRSFSELEEKIRSNRVIELPLRPLLSRDCRDLLQRLLERDPSRRISFQDFFAHPWVDLEHMPSGESLGRATALVVQAVKKDQEGDSAAALSLYCKALDFFVPALHYEVDAQRKEAIKAKVGQYVSRAEELKAIVSSSNQALLRQGTSARDLLREMARDKPRLLAALEVASAAMAKEEAAGGEQDALDLYQHSLGELLLLLAAEPPGRRRELLHTEVQNLMARAEYLKEQVKMRESRWEADTLDKEGLSESVRSSCTLQ
modifications: MUTAGEN (1)..(472) mutated ULK3 protein ULK3 (K139R)
- amount of GLI1 in nuclear extracts [2]: significantly lower amounts of GLI1
- induction of endogenous GLI1 expression [3]: failed to activate
- endogenous GLI1 expression level relative to empty vector [3]: failed to activate

B3: ULK3: human serine/threonine kinase, 472 amino acids (SEQ ID NO: 1), overexpressed from cloned cDNA or immunopurified FLAG-tagged (protein, listed as Homo sapiens)
chain: MAGPGWGPPRLDGFILTERLGSGTYATVYKAYAKKDTREVVAIKCVAKKSLNKASVENLLTEIEILKGIRHPHIVQLKDFQWDSDNIYLIMEFCAGGDLSRFIHTRRILPEKVARVFMQQLASALQFLHERNISHLDLKPQNILLSSLEKPHLKLADFGFAQHMSPWDEKHVLRGSPLYMAPEMVCQRQYDARVDLWSMGVILYEALFGQPPFASRSFSELEEKIRSNRVIELPLRPLLSRDCRDLLQRLLERDPSRRISFQDFFAHPWVDLEHMPSGESLGRATALVVQAVKKDQEGDSAAALSLYCKALDFFVPALHYEVDAQRKEAIKAKVGQYVSRAEELKAIVSSSNQALLRQGTSARDLLREMARDKPRLLAALEVASAAMAKEEAAGGEQDALDLYQHSLGELLLLLAAEPPGRRRELLHTEVQNLMARAEYLKEQVKMRESRWEADTLDKEGLSESVRSSCTLQ
modifications: PEPTIDE (1)..(472) ULK3
- phosphorylation of GLI3 [4]: significantly lower intensity as compared to GLI2
- amount of GLI1 in nuclear extracts [2]: retained most of the GLI1 in the nuclei
- induction of endogenous GLI1 expression [3]: able to induce
- endogenous GLI1 expression level relative to empty vector [3]: approximately 6 times
